Measurements taken from the supplement of paper PMC7125110.
± gives the standard error. For some of these results: This sample holds only a part of the variants without activity.

B1: glmS ribozyme (parent)
chain: AUAAAAGCGCCAGAACUACAGAAAUGUAGUUGACGAGGAGGAGGUUUAUCGAAUUUUCGGCGGAUGCCUCCAAA

How the values were obtained:
Conditions in all cases: with glucosamine-6-phosphate
glucosamine-6-phosphate [1] = variants of: B1; test: kcat; higher = faster cleavage; RNA array
Method in brief: (§1)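 Ribozyme variants carrying barcodes were transcribed in situ on sequenced MiSeq chips by E. coli RNA polymerase and tracked at 37 °C with a hybridised Cy3 probe. They were exposed to 40 μM to 10 mM glucosamine-6-phosphate in HEPES/KCl/Mg(OAc)2 buffer. kobs came from exponential decay fits of normalised per-tile medians, and kcat and KM from weighted Michaelis–Menten fits.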

glucosamine-6-phosphate [2] = variants of: B1; test: KM; higher = weaker cofactor use; RNA array
Method in brief: as §1

glucosamine-6-phosphate [3] = variants of: B1; test: self-cleavage kobs at 40 uM GlcN6P; higher = faster cleavage; RNA array
Method in brief: as §1

glucosamine-6-phosphate [4] = variants of: B1; test: self-cleavage kobs at 160 uM GlcN6P; higher = faster cleavage; RNA array
Method in brief: as §1

glucosamine-6-phosphate [5] = variants of: B1; test: self-cleavage kobs at 640 uM GlcN6P; higher = faster cleavage; RNA array
Method in brief: as §1

glucosamine-6-phosphate [6] = variants of: B1; test: self-cleavage kobs at 2500 uM GlcN6P; higher = faster cleavage; RNA array
Method in brief: as §1

glucosamine-6-phosphate [7] = variants of: B1; test: self-cleavage kobs at 10000 uM GlcN6P; higher = faster cleavage; RNA array
Method in brief: as §1

| Variant | kcat (glucosamine-6-phosphate [1]) | KM (glucosamine-6-phosphate [2]) | self-cleavage kobs at 40 uM GlcN6P (glucosamine-6-phosphate [3]) | self-cleavage kobs at 160 uM GlcN6P (glucosamine-6-phosphate [4]) | self-cleavage kobs at 640 uM GlcN6P (glucosamine-6-phosphate [5]) | self-cleavage kobs at 2500 uM GlcN6P (glucosamine-6-phosphate [6]) | self-cleavage kobs at 10000 uM GlcN6P (glucosamine-6-phosphate [7]) |
| --- | --- | --- | --- | --- | --- | --- | --- |
| AUAAAAGCGCCAGAACUACAGAAAUGUAGUUGACGAGGGGGAGGUUUAUCGAAUUUUCGGCGGGUGCCUCCAAA | 0.127 ± 0.027 s⁻¹ | 5960 ± 1400 µM | 0.000853 ± 0.00016 s⁻¹ | 0.00322 ± 0.00052 s⁻¹ | 0.0131 ± 0.0018 s⁻¹ | 0.0328 ± 0.0078 s⁻¹ | 0.0876 ± 0.026 s⁻¹ |
| AUAAAAGCGCCAGAACUACAGAAAUGUAGUUGACGAGGAGGAGGUUUAUCGAACUUUCGGCGGAUGGCUCCAAA | 0.000821 ± 0.00019 s⁻¹ | 534 ± 220 µM | 5.95e-05 ± 1.1e-05 s⁻¹ | 0.000179 ± 2.6e-05 s⁻¹ | 0.000519 ± 7.3e-05 s⁻¹ | 0.000553 ± 8.6e-05 s⁻¹ | 0.00137 ± 0.00026 s⁻¹ |
| AUAAAAGCGCCAGAACUACAGAAAUGUAGUUGACGAGGAGGAGGUUUAUCGAAUUUACGGCGGAUGCGUCCAAA | 3.34e-05 ± 1.3e-05 s⁻¹ |  |  |  | 6.21e-05 ± 1.7e-05 s⁻¹ | 4.55e-05 ± 1.7e-05 s⁻¹ |  |
| AUAAAAGCGCCAGAACUACAGAAAUGUAGUUGACGAGGAGGAGGUUUAUCGAAUUGUCGGCGGAUGCCUACAAA | 4.56e-05 ± 9.3e-06 s⁻¹ |  |  | 3.41e-05 ± 1.7e-05 s⁻¹ | 7.43e-05 ± 3e-05 s⁻¹ | 6.95e-05 ± 1.6e-05 s⁻¹ | 3.66e-05 ± 8.6e-06 s⁻¹ |
| AUAAAAGCGCCAGAACUACAGAAAUGUAGUUGACGAGGAGCAGGUUUAUCGAGUUUUCGGCGGAUGCCUCCAAA | 0.000359 ± 9.5e-05 s⁻¹ |  |  | 5.35e-05 ± 1.4e-05 s⁻¹ | 0.000157 ± 3.2e-05 s⁻¹ | 0.000193 ± 4.2e-05 s⁻¹ | 0.000438 ± 7.1e-05 s⁻¹ |
| AUAAAAGCGCCAGCACUACAGAAAUGUAGUUGACGAGGAGGAGGUUUAUCGUAUUUUCGGCGGAUGCCUCCAAA | 8.73e-05 ± 5e-06 s⁻¹ | 1920 ± 430 µM |  |  |  | 5.13e-05 ± 1.4e-05 s⁻¹ | 7.28e-05 ± 1e-05 s⁻¹ |
| AUAAAAGCGCCAGAACUACAGAAAUGUAGUUGACGAGGCGGAGGUUUAUCGAAUUUUCGGCGGAAGCCUCCAAA | 0.000512 ± 3.7e-05 s⁻¹ | 4220 ± 530 µM |  |  | 6.9e-05 ± 1.1e-05 s⁻¹ | 0.000191 ± 2.8e-05 s⁻¹ | 0.000359 ± 4.1e-05 s⁻¹ |
| AUAAAAGCGCCAGAACUACAGAAAUGUAGUUGACGAGGAGGAGGGUUAUCGAAUUUUCGGCGGAUGCCUCCAAA | 0.011 ± 0.0012 s⁻¹ | 2240 ± 300 µM | 0.000203 ± 3.8e-06 s⁻¹ | 0.000679 ± 2.9e-05 s⁻¹ | 0.00227 ± 5.8e-05 s⁻¹ | 0.00566 ± 0.00017 s⁻¹ | 0.00968 ± 0.00036 s⁻¹ |
